Where no end group is shown, it is not given here.
System: WT mice
Test: P1 treatment of WT littermates in the efficacy study
Type: in vivo, mouse
Excerpt: FIG. 31A-31F: For each of FIG. 31A-31F, data is shown reflecting the results of 3 separate studies (i.e., “Batch 1+2+3”) conducted under identical conditions; “veh” refers to the vehicle saline control. For each of FIG. 31A-31C at week 6, WT: n=15; WT+P1: n=15; R62 veh: n=22; R62+HV3-TAT: n=32; and R62+P1: n=16. For each of FIG. 31D-31F at week 6, WT: n=15; WT+P1: n=15; R62 veh: n=17; R62+HV3-TAT: n=30; and R62+P1: n=13. FIG. 31A depicts the average percent of body weight gain for mice subjected to each treatment. From top to bottom, the week 13 data points correspond to: WT+P1 (˜43%); WT (˜39%); R62+P1 (˜1%); R62+HV3-TAT (˜ 4%); and R62 (˜-9%). […]
In vivo Efficacy Methods—Behavioral Analysis: All experiments in animals were conducted in accordance with protocols approved by the Institutional Animal Care and Use Committee of Northwestern University and were performed based on the National Institutes of Health Guide for the Care and Use of Laboratory Animals. […] Accordingly, hindlimb clasping was assessed with the tail suspension test weekly from the ages 7 to 13 weeks in R6/2 mice and WT littermates. Mice were suspended by the tail for 60 sec and the latency for the hindlimbs or all four paws to clasp was recorded using the following score system: clasping over 10 sec, score 3; 5-10 sec, score 2; 0-5 sec, score 1; 0 sec, score 0. […]

## P1: PLP homopolymer having peptide side chains of SEQ ID: 1 (HVLVMSATRR), made by ROMP of norbornene peptide monomer M1 (also: side chains of polynorbornene homopolymer (PLP, ROMP of norbornene peptide monomer))
WT mice
  survival rate: 100%
mouse, in vivo
  effects on motor ability, body weight, or neuropathology: no significant effects

Source: patent US20240110004A1 (Northwestern University, priority 2022, published 2024)
